In patent US20120213771A1 (CELLDEX THERAPEUTICS, published 2012) one finds EC50 data, which are given here for eight molecules.

The target in test [1] is T1, purified recombinant monkey (macaque) CD27 (macaque).
T1 construct: The paragraph speaks of cynomolgus macaques as the model; the protein itself is only called macaque / monkey CD27; Captured with anti-Flag antibody in one format; also called monkey CD27
The test can be described thus: ELISA on plate-bound monkey CD27, half-max binding. On the technique in general: In an ELISA, binding on a coated surface is turned into a signal by an enzyme label.

The target in test [2] is T2, recombinant purified human CD27 (human, UniProt P26842 20-191).
T2 construct: also called soluble or recombinant human CD27
T2 sequence: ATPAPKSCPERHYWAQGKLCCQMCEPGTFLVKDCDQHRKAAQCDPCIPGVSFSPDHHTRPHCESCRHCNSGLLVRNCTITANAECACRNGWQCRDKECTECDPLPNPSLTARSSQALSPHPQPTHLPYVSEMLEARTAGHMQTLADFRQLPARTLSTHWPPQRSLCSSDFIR
Description: ELISA on CD27-coated plates, half-max binding (C value of 4-parameter fit). The protocol:
Microtiter plates were coated with soluble or recombinant human or macaque CD27 in PBS, and then blocked with 5% bovine serum albumin in PBS. Protein A purified human mAbs and an isotype control were added at […] concentrations and incubated at 37° C. The plates were washed with PBS/Tween and then incubated with a goat-anti-human IgG Fc-specific polyclonal reagent conjugated to alkaline phosphatase at 37° C. After washing, the plates were developed with pNPP substrate (1 mg/ml), and analyzed at OD 405-650 using a microtiter plate reader.

Values joined by “and” are separate entries in the source; they are usually repeats but may differ in a detail not shown here. Equal entries are not always repeated.

B1: 3H8-1B11 (antibody, V domains shown)
VH: EVQLVESGGGLVQPGGSLRLSCAASGFTFSSYWMAWVRQAPGKGLEWLGNIKQDGSEKYYVDSVKGRFTISRDNAKNSLYLQMNSLRAEDTAVYYCVRELGMDWYFDLWGRGTLVTVSS
VL: EIVLTQSPATLSLSPGERATLSCRASQSVDSYLAWYQQKPGQAPRLLIYDASNRATGIPARFSGSGSGTDFTLTISNLEPEDFAVYYCQQRSNWPPTFGQGTKVEIK
notes: Human IgG from hybridoma
Usually EC50 stands for the concentration that produces a half-maximal response. For the molecule B1, the concentration for a half-maximal effect (EC50) in test [1] is 0.065 µg/mL; in test [2], 0.46 nM and 0.069 µg/mL.

B2: 1G5-1B9 (antibody, V domains shown)
VH: QVQLVESGGGVVQPGRSLRLSCAASGFSFSSYGMHWVRQAPGKGLEWVALLWYDGSHKDFADSVKGRFTISRDNSKNTLDLQMNSLRAEDTAVYYCAREGLAVPGHWYFDLWGRGTLVTVSS
VL: AIQLTQSPSSLSASVGDRVTITCRASQGISSALAWYQQKPGKAPKLLIYDASSLESGVPSRFSGSGSGTDFTLTISSLQPEDFATYYCQQFNTYPRTFGQGTKVEIK
notes: Human IgG from hybridoma
As to B2, the EC50 in test [1] is 0.065 µg/mL; in test [2], 0.49 nM and 0.074 µg/mL.

B3: 1F5-1H5 (antibody, V domains shown)
VH: QVQLVESGGGVVQPGRSLRLSCAASGFTFSSYDMHWVRQAPGKGLEWVAVIWYDGSNKYYADSVKGRFTISRDNSKNTLYLQMNSLRAEDTAVYYCARGSGNWGFFDYWGQGTLVTVSS
VL: DIQMTQSPSSLSASVGDRVTITCRASQGISRWLAWYQQKPEKAPKSLIYAASSLQSGVPSRFSGSGSGTDFTLTISSLQPEDFATYYCQQYNTYPRTFGQGTKVEIK
notes: Fully human IgG from HuMAb mouse hybridoma, protein A purified; Human IgG1 is used as its isotype control; also called mAb 1F5; anti-CD27 mAb 1F5
As for B3, the EC50 is 0.12 µg/mL in test [1]; 0.39 nM and 0.059 µg/mL in test [2].

B4: 1H8-B4 (antibody, V domains shown)
VH: QVQLVESGGGVVQPGRSLRLSCAASGFTFNIYDMHWVRQAPGKGLEWVAVIWYDGSNQYYADSVKGRFTISRDNSKNTLYLQMNILRAEDTAVYYCARGTHWGYFDYWGQGTLVTVSS
VL: DIQMTQSPSSLSASVGDRVTITCRASQGISSWLAWYQQKPEKAPKSLIYAASNLQSGVPSRFSGSGSGTDFTLTISSLQPEDFATYYCQQYNSYPRTFGQGTKVEIK
notes: Human IgG from hybridoma
For B4, the EC50 in test [1] is 0.105 µg/mL; in test [2], 0.43 nM and 0.064 µg/mL.

B5: 3H12-1E12 (antibody, V domains shown)
VH: QVQLVESGGGVVQPGRSLRLSCATSGFTFSSYDMHWVRQAPGKGLEWVAVIWYDGSNKYYADSVKGRFTISRDNSKNTLYLQMNSLGDEDTAVYYCARGSGNWGFFDYWGQGTLVTVSS
VL: DIQMTQSPSSLSASVGDRVTITCRASQGISRWLAWYQQKPEKAPKSLIYAASSLQSGVPSRFSGSGSGTDFTLTISSLQPEDFATYYCQQYNTYPRTFGQGTKVEIK
notes: Human IgG from hybridoma; Two subclones (3H12-1C8 and 3H12-1E12) are both called 3H12; also called 3H12-1C8
For B5, the concentration giving a half-maximal response (EC50) was 0.123 µg/mL in test [1]; 0.57 nM and 0.085 µg/mL in test [2].

B6: 2G9-1D11 (antibody, V domains shown)
VH: QVQLVESGGGVVQPGRSLRLSCAASGFTLSSHDIHWVRQAPGKGLEWVAVIWNDGSNKYYADSVKGRFTISRDNSTNSLFLQMNSLRAEDTAVYYCVRGTADLEHWDQGTLVTVSS
VL: DIQMTQSPSSLSASVGDRVTITCRASQGISSWLAWYQQKPEKAPKSLIYAASSLQSGVPSRFSGSGSGTDFTLTISSLQPEDFATYYCQQYNSYPLTFGGGTKVEIK
notes: Human IgG from hybridoma
Regarding B6, the EC50 in test [1] is 0.069 µg/mL; in test [2], 0.43 nM and 0.064 µg/mL.

B7: 3A10-G10 (antibody, V domains shown)
VH: QVQLVESGGGVVQPGRSLRLSCAASGFTFSHYGMHWVRQAPGKGPEWVAIIWYDGSNKYYADSVKGRFTISRDNSKNTLDLQMNSLRAEDTAVYYCARDGWTTMVRGLNVFDIWGQGTMVTVSS
VL: DIQMTQSPSSLSASVGDRVTITCRASQDISSWLAWYQQKPEKAPKSLIYAASSLQSGVPSRFSGSGSGTDFTLTISSLQPEDFATYYCQQYNSYPPTFGQGTRLEIK
notes: Human IgG from hybridoma; also called 3A10-1G10
Consider B7, for which, in test [2], the EC50 is 0.63 nM and 0.094 µg/mL.

B8: 2C2-1A10 (antibody, V domains shown)
VH: QVQLVESGGGVVQPGRSLRLSCAASGFTFSSYDIHWVRQAPGKGLEWVAVIWNDGSNKYYADSVKGRFTISRDNSTNSLFLQMNSLRAEDTAVYYCVGGTADLEHWDQGTLVTVSS
VL: DIQMTQSPSSLSASVGDRVTITCRASQGISSWLAWYQQKPEKAPKSLIYAASSLQSGVPSRFSGSGSGTDFTLTISSLQPEDFATYYCQQYNSYPLTFGGGTKVEIK
notes: Human IgG from hybridoma
As for B8, the EC50 in test [1] was 0.034 µg/mL; in test [2], 0.3 nM and 0.045 µg/mL.
